Data as given in paper PMC2918291 (Nature structural & molecular biology, 2010).

Molecular target: the molecule itself
Test: crystal structure

B1: MthK K^+ channel ion conduction pore, S68R V77C mutant (domain or fragment, Methanobacterium thermoautotrophicum)
chain: VPATRILLLVLAVIIYGTAGFHFIEGESWTVSLYWTFVTIATVGYGDYSPRTPLGMYFTCTLIVLGIGTFAVAVERLLEFLI
binding result: binds
